Results as given in patent publication US20100169989A1.
One block for each substance: values may come before it.

How the values were obtained:
[1] = target: myostatin mature C-terminal dimer (purified from conditioned medium of CHO cells carrying a myostatin expression construct) (UniProt O14793); experiment: inhibition of labeled myostatin binding to Act RIIB-transfected COS-7 cells
[2] = target: cell surface binding proteins on L6 myoblasts (GDF-8 receptor); experiment: I-125 labeled GDF-8 receptor-ligand binding assay on myoblasts

Chain of myostatin prodomain peptide (purified from the CHO cell myostatin preparation) (O08689 25-267): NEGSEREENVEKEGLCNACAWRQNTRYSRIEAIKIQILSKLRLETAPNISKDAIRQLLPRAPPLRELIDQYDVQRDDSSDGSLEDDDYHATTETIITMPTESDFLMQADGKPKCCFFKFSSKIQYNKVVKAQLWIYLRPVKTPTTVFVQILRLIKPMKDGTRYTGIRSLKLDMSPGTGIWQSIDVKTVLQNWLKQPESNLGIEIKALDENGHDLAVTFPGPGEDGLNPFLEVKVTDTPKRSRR

fold of Ki against the Ki of follistatin [1]: 50 fold
Substance: myostatin prodomain peptide (purified from the CHO cell myostatin preparation)

Kd [2]: 0.37 nM
Substance: recombinant human GDF-8 (rhGDF-8) homodimer (from UniProt O14793 267-374) (ligand)

Ki [1]: 0.47 nM
Substance: follistatin
